Publication PMC9283540

How the values were obtained:
[1] = target: TipsytheTRex repressor D104A (Mycobacteriophage TipsytheTRex (cluster A)) (UniProt A0A2D1GKF7); assay: EMSA; conditions: 0.25 uM labeled DNA; ~3.5-fold weaker than WT; EMSA: 20 mM Tris pH 7.0, 25 mM NaCl, 1 mM DTT, 100 ug/mL BSA, 5% glycerol, 0.25 uM FAM-DNA, room temperature 30 min, 5% native gel in 1x TAE
[2] = target: TipsytheTRex immunity repressor (WT of study stock) (Mycobacteriophage TipsytheTRex (cluster A)) (UniProt A0A2D1GKF7); assay: EMSA; conditions: 0.25 uM labeled DNA; EMSA: 20 mM Tris pH 7.0, 25 mM NaCl, 1 mM DTT, 100 ug/mL BSA, 5% glycerol, 0.25 uM FAM-DNA, room temperature 30 min, 5% native gel in 1x TAE

With “ACGGCCCGCTTGACAGCCACCGAAACATCC (double strand) [30-bp optimal]” as the sequence, how does the Kd [1] read?
Its Kd is 207 nM.

What about the Kd [2] of the same sequence?
The Kd was 59 nM.
